From the supplement of paper PMC10567573 come the findings set out here.

First the molecules themselves.
B1: SCNN1D (parent)
chain: RRPSPVLRHLELLDEFARENIDSL
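Further: lentivirally expressed fusions sorted by FACS into six bins by GFP to DsRed ratio, PSI derived from sequencing read proportions per bin multiplied by bin number.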

Variants of B1 are the subject of this data set. Briefly: protein stability index of a GFP-peptide fusion (GPS, HEK-293T) (PSI 1-6); higher = more stable. Particulars: c terminus: a fixed tail appended.
For RRFSPVLRHLELLDEFARENIDSL [P3F], the protein stability index amounted to 1.88. In the case of RRKSPVLRHLELLDEFARENIDSL [P3K] it was 3.06; in that of RRRSPVLRHLELLDEFARENIDSL [P3R], 2.85; in that of RRESPVLRHLELLDEFARENIDSL [P3E], 2.38. In the case of RRHSPVLRHLELLDEFARENIDSL [P3H] it was 1.96; in that of RRYSPVLRHLELLDEFARENIDSL [P3Y], 2.31.

Take RRWSPVLRHLELLDEFARENIDSL [P3W]: the protein stability index amounted to 1.76. In the case of RRISPVLRHLELLDEFARENIDSL [P3I] it was 1.96; in that of RRTSPVLRHLELLDEFARENIDSL [P3T], 2.83. In the case of RRQSPVLRHLELLDEFARENIDSL [P3Q] it was 1.92; in that of RRSSPVLRHLELLDEFARENIDSL [P3S], 2.72; in that of RRGSPVLRHLELLDEFARENIDSL [P3G], 2.75. With RRVSPVLRHLELLDEFARENIDSL [P3V], the protein stability index is 1.44. In the case of RRLSPVLRHLELLDEFARENIDSL [P3L] it was 2.42; in that of RRMSPVLRHLELLDEFARENIDSL [P3M], 2.26; in that of RRNSPVLRHLELLDEFARENIDSL [P3N], 3.06. For the variant RRPSQVLRHLELLDEFARENIDSL [P5Q], the protein stability index was 4.62. Consider RRPSHVLRHLELLDEFARENIDSL [P5H], for which the protein stability index turned out to be 2.97. For the variant RRPSVVLRHLELLDEFARENIDSL [P5V], the protein stability index was found to be 2.43. In the case of RRPSNVLRHLELLDEFARENIDSL [P5N] it was 3.22. Take RRPSIVLRHLELLDEFARENIDSL [P5I]: the protein stability index stood at 2.27.

Regarding RRPSWVLRHLELLDEFARENIDSL [P5W], the protein stability index came out at 1.93. In the case of RRPSDVLRHLELLDEFARENIDSL [P5D], the protein stability index worked out at 3.08. In the case of RRPSSVLRHLELLDEFARENIDSL [P5S] it was 2.85. In the case of RRPSFVLRHLELLDEFARENIDSL [P5F] it was 2.19. In the case of RRPSCVLRHLELLDEFARENIDSL [P5C] it was 2.17. As for RRPSTVLRHLELLDEFARENIDSL [P5T], the protein stability index was 3.05.

Take RRPSMVLRHLELLDEFARENIDSL [P5M]: the protein stability index stood at 2.5.

For RRPSYVLRHLELLDEFARENIDSL [P5Y], the protein stability index is 2.65. In the case of RRPSEVLRHLELLDEFARENIDSL [P5E] it was 3.77. RRPSGVLRHLELLDEFARENIDSL [P5G]: the protein stability index is 3.53.

As for RRPSKVLRHLELLDEFARENIDSL [P5K], the protein stability index turned out to be 3.59.

In the case of RRPSLVLRHLELLDEFARENIDSL [P5L], the protein stability index stood at 2.06.

On to RRPSRVLRHLELLDEFARENIDSL [P5R], for which the protein stability index is 3.63. As for RRPSAVLRHLELLDEFARENIDSL [P5A], the protein stability index turned out to be 2.4.

For RRPSPWLRHLELLDEFARENIDSL [V6W], the protein stability index amounted to 1.79.

As for RRPSPPLRHLELLDEFARENIDSL [V6P], the protein stability index stood at 4.22. In the case of RRPSPTLRHLELLDEFARENIDSL [V6T] it was 2.98.

Take RRPSPHLRHLELLDEFARENIDSL [V6H]: the protein stability index came to 3.79.

For the variant RRPSPILRHLELLDEFARENIDSL [V6I], the protein stability index was 1.95. As to RRPSPDLRHLELLDEFARENIDSL [V6D], the protein stability index amounted to 4.09. Take RRPSPFLRHLELLDEFARENIDSL [V6F]: the protein stability index came out at 2.28. In the case of RRPSPYLRHLELLDEFARENIDSL [V6Y] it was 1.96; in that of RRPSPSLRHLELLDEFARENIDSL [V6S], 3.48; in that of RRPSPQLRHLELLDEFARENIDSL [V6Q], 2.82. For the variant RRPSPELRHLELLDEFARENIDSL [V6E], the protein stability index is 3.37. In the case of RRPSPLLRHLELLDEFARENIDSL [V6L] it was 1.91; in that of RRPSPCLRHLELLDEFARENIDSL [V6C], 2.72. On to RRPSPGLRHLELLDEFARENIDSL [V6G], for which the protein stability index was determined as 3.96.

Turning to RRPSPMLRHLELLDEFARENIDSL [V6M], the protein stability index is 2.31. In the case of RRPSPKLRHLELLDEFARENIDSL [V6K] it was 2.63; in that of RRPSPALRHLELLDEFARENIDSL [V6A], 2.86; in that of RRPSPRLRHLELLDEFARENIDSL [V6R], 2.43. Regarding RRPSPNLRHLELLDEFARENIDSL [V6N], the protein stability index was determined as 3.77.

RRPGPVLRHLELLDEFARENIDSL [S4G]: the protein stability index was 2.65. In the case of RRPFPVLRHLELLDEFARENIDSL [S4F] it was 2.47; in that of RRPLPVLRHLELLDEFARENIDSL [S4L], 2.66. RRPHPVLRHLELLDEFARENIDSL [S4H]: the protein stability index is 2.14.

For the variant RRPVPVLRHLELLDEFARENIDSL [S4V], the protein stability index is 2.82. Take RRPPPVLRHLELLDEFARENIDSL [S4P]: the protein stability index came to 3.17. In the case of RRPTPVLRHLELLDEFARENIDSL [S4T] it was 3.15; in that of RRPNPVLRHLELLDEFARENIDSL [S4N], 2.34. In the case of RRPRPVLRHLELLDEFARENIDSL [S4R] it was 2.87; in that of RRPIPVLRHLELLDEFARENIDSL [S4I], 2.67; in that of RRPEPVLRHLELLDEFARENIDSL [S4E], 3.61.

Consider RRPDPVLRHLELLDEFARENIDSL [S4D], for which the protein stability index stood at 3.68. Take RRPCPVLRHLELLDEFARENIDSL [S4C]: the protein stability index was 2.99. In the case of RRPKPVLRHLELLDEFARENIDSL [S4K] it was 3.14; in that of RRPAPVLRHLELLDEFARENIDSL [S4A], 2.63; in that of RRPMPVLRHLELLDEFARENIDSL [S4M], 2.88. In the case of RRPWPVLRHLELLDEFARENIDSL [S4W] it was 2.35; in that of RRPQPVLRHLELLDEFARENIDSL [S4Q], 3.89.

As for RRPYPVLRHLELLDEFARENIDSL [S4Y], the protein stability index amounted to 2.5.

For the variant RRPSPVLRHLELADEFARENIDSL [L13A], the protein stability index amounted to 3.98. In the case of RRPSPVLRHLELCDEFARENIDSL [L13C] it was 3.57; in that of RRPSPVLRHLRLLDEFARENIDSL [E11R], 2.96. With RRPSPVLRHLPLLDEFARENIDSL [E11P], the protein stability index was 3.75. RRPSPVLRHLCLLDEFARENIDSL [E11C]: the protein stability index was found to be 2.01. In the case of RRPSPVLRHLTLLDEFARENIDSL [E11T] it was 2.41. In the case of RRPSPVLRHLQLLDEFARENIDSL [E11Q], the protein stability index came out at 3.06. In the case of RRPSPVLRHLHLLDEFARENIDSL [E11H] it was 3.18; in that of RRPSPVLRHLFLLDEFARENIDSL [E11F], 1.89. With RRPSPVLRHLMLLDEFARENIDSL [E11M], the protein stability index is 2.14. With RRPSPVLRHLGLLDEFARENIDSL [E11G], the protein stability index came to 4.33. RRPSPVLRHLYLLDEFARENIDSL [E11Y]: the protein stability index worked out at 2.25.

On to RRPSPVLRHLDLLDEFARENIDSL [E11D], for which the protein stability index stood at 3.55. In the case of RRPSPVLRHLVLLDEFARENIDSL [E11V] it was 2.56; in that of RRPSPVLRHLALLDEFARENIDSL [E11A], 3.1; in that of RRPSPVLRHLNLLDEFARENIDSL [E11N], 3.5. In the case of RRPSPVLRHLSLLDEFARENIDSL [E11S] it was 3.25.

For RRPSPVLRHLLLLDEFARENIDSL [E11L], the protein stability index came to 1.41. Take RRPSPVLRHLKLLDEFARENIDSL [E11K]: the protein stability index is 2.83.

On to RRPSPVLRHLWLLDEFARENIDSL [E11W], for which the protein stability index is 2.49. In the case of RRPSPVLRHLILLDEFARENIDSL [E11I] it was 1.9.
